From paper PMC11347149

Columns and labels:
[1] = biological target: T1, His6C-CoxC (LytTR DNA-binding domain) (Afipia carboxidovorans OM5) (UniProt Q9KX27); test: EMSA; settings: EMSA: 20 mM Tris-HCl pH 7.5, 50 mM KCl, 2 mM beta-mercaptoethanol, 10% glycerol, 250 ug/ml BSA, 50 ug/ml salmon sperm DNA, 1 mM DTT, 1 mM dithionite, 2 ng …
T1 sequence: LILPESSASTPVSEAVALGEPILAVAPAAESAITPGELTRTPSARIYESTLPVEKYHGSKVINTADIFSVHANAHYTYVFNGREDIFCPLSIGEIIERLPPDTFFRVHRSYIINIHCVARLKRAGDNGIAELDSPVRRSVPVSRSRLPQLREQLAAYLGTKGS

[2] = test system: His6C-CoxC (LytTR DNA-binding domain) (Afipia carboxidovorans OM5); test: EMSA; settings: EMSA: 20 mM Tris-HCl pH 7.5, 50 mM KCl, 2 mM beta-mercaptoethanol, 10% glycerol, 250 ug/ml BSA, 50 ug/ml salmon sperm DNA, 1 mM DTT, 1 mM dithionite, 2 ng …

Substance | Kd [1] [nM] | binding [1] | Kd [2] [nM]
AATTCCAGTTCATGCGTATGTTACCGCCGTTGGTGGAATTTGGAAGTCGTTTGGGCAAAAGCCTTTGATGCTGCTTTGCGGCAACTTCTATCGTGCCCCACGAACGTCGCATCATAAGAAATGTGACGCCCGGGGGGGACAACGCAAATGGGTTGCGAAAATATGCAGGCGCGGCAAGCACCGTGTCGCCAAGCTAGGCATTTGGCTCAAACTGTCCCCTCGAAGCTCTCTTCAACTGCTGCAAAGCATCGACCGCATTTTCGCGGACGATATTGGGATCCCG (double strand) [PcoxB] | 25 | binds | –
PcoxB | – | – | 25
